Assay results taken from patent publication US20070161040A1.

Molecular target: rabbit IgG

## TEM-PA hybrid protein where one repeated domain of the protein A was internalised (from UniProt P62593 24-195; P38507 212-269; P62593 196-286)
  amount of immobilised rabbit IgG that can be detected: 10 to 100 ng
